In PMC3413123 one finds stoichiometry N data, which are given here for 2 substances.

One may read the stoichiometry N as the number of molecules, sites or subunits per partner or assembly.

One test has as its target ParGβCopG (UniProt Q9KJ82). The experiment in a line: cross-linking.
The next test has as its target ParGβMetJ (UniProt Q9KJ82). Description: cross-linking.

Substance ParGβCopG (from UniProt Q9KJ82 1-76) displayed a stoichiometry N in the test with ParGβCopG of 2.
In the test with ParGβMetJ, ParGβMetJ (from UniProt Q9KJ82 1-76) came in with a stoichiometry N of 2.
